Legend:
[1] = tested on: αVβ3 integrin on HUVEC surface; test: HUVEC adhesion to Vitronectin-coated plate; format: cell-based, human; conditions: pre-incubation of bFGF-stimulated HUVEC 20 min; FIG. 4a
Procedure: To confirm that inhibition of HUVEC proliferation by Saxatilin is due to the direct interaction of Saxatilin with Vitronectin receptor, αVβ3 integrin, localized on the HUVEC surface, it was investigated whether Saxatilin blocks HUVEC from binding to Vitronectin-coated 96-well plate.
(§1) 96-well plate was coated with recombinant Saxatilin obtained in Example 6 (1 μg/well) as well as Vitronectin (0.5 μg/well) which were dissolved in phosphate buffered saline (PBS) for 16 hr at 4° C. After washing the plate, 10 mg/ml of heat-treated bovine serum albumin (BSA) was added for blocking of uncharged protein binding site. The plate was incubated for 1 hr and washed with PBS. HUVEC was trypsinized and washed with PBS three times, and then, resuspended in serum-free DMEM. 5×10^4 cells were mixed with anti-αVβ3 monoclonal antibody, a synthesized RGD peptide, GRGDSP (SEQ ID NO:7), a synthesized RGE peptide, GRGETP (SEQ ID NO:8) and Saxatilin, and pre-incubated for 20 min at 37° C. Then, the mixture was added to the wells of both Saxatilin and Vitronectin-coated 96-well plate. After 1 hr of incubation at 37° C. under an environment of 5% CO2, the plate was washed with PBS to remove unbound cells, and bound cells were fixed and stained with Coomassie blue. Optical absorbences of the wells were measured at 540 nm to count relative cell numbers (see: FIGS. 4a and 4b).

[2] = tested on: αVβ3 integrin on HUVEC surface; test: HUVEC adhesion to Saxatilin-coated plate; format: cell-based, human; conditions: pre-incubation of bFGF-stimulated HUVEC 20 min; FIG. 4b
Procedure: as §1

[3] = tested on: human platelet rich plasma (PRP); format: cell-based; conditions: method of Example 1 (collagen-induced, human PRP); read-out: IC50 determined by platelet aggregation inhibition assay
Procedure: To isolate Saxatilin from the venom of Agkistrodon saxatilis emelianov, 302.4 mg of crude venom from the snake was applied to a SEPHADEX™ G-75 gel filtration column (1.8×100 cm) equilibrated with PBS buffer, and fractionated at a flow rate of 20 ml/h. The activity of Saxatilin was determined by the platelet aggregation inhibition assay: The concentrated human platelet rich plasma (PRP) obtained from 400 ml of human blood was diluted to the concentration of 300,000 platelets/μl. The diluted PRP (450 μl) was mixed with 50 μl of PBS and then incubated in the aggregometer CHROMO-LOGT™, USA) at 37° C. for 3 minutes. After collagen ([…]) was added into the PRP solution to induce the platelet aggregation, the difference of light transmittance was measured.
Recombinant Saxatilin obtained in Example 6 was assayed by the platelet aggregation inhibition method described in Example 1, and compared with those of wild-type Saxatilin obtained in Example 1 and GRGDSP (SEQ ID NO:7) (see: Table 1), respectively.

male C57BL/6 mouse = test: Acute toxicity (LD50); format: in vivo; conditions: subcutaneous injection, 7 days
Procedure: To examine the acute toxicity of Saxatilin as anti-platelet aggregation agent and anti-tumor agent, Saxatilin was injected into male C57BL/6 mouse subcutaneously and the dead were counted to determine LD50 for 7 days.

[4] = tested on: human platelet rich plasma; test: Platelet aggregation inhibition assay, ADP-induced (Example 5); format: cell-based
Procedure: After ADP was added into each of the PRP solutions to induce the platelet aggregation, the turbidity was measured, respectively (see: FIG. 1).

ICR mice = test: Collagen/epinephrine-induced thrombosis in mice, viability; format: in vivo, mouse; conditions: 10 min before collagen + epinephrine
Procedure: When a mixture of collagen and epinephrine was injected into mice intravenously, thrombus was formed in pulmonary artery, which led to paralysis, dilation of pupil, laboring breath and convulsions, and finally 70% of the mice died not more than 5 min. Thus, it was investigated whether the intravenous injection of recombinant Saxatilin could reduce the thrombosis symptoms.
At 10 minutes after Saxatilin (0, 0.1, 0.25 and 0.5 mg/kg dissolved in 0.1 ml PBS, respectively) was intravenously injected into the tails of ICR mice, the mixture of collagen and epinephrine (120 μg collagen and 12 μg epinephrine in 0.1 ml PBS) was also injected into the tails of ICR mice, intravenously, and the viability was determined (see: Table 2).

HUVEC = test: bFGF-stimulated HUVEC proliferation inhibition assay; format: cell-based, human; conditions: 0, 20, 30 μg/ml; 1 ng/ml bFGF; 72 hr; FIG. 3
Procedure: To investigate whether recombinant Saxatilin containing RGD sequence inhibits the endothelial cell proliferation, proliferation inhibition assay was performed using HUVEC.
HUVEC was cultured on 24-well microplate coated with gelatin at 37° C. for 24 hr under an environment of 5% CO2. […] Then, cells were further incubated for 20 min and treated with 1 ng/ml of bFGF solution. After incubation of 72 hr, cells were trypsinized and the cell numbers were counted to determine cell viability (see: FIG. 3).

[5] = tested on: chick chorioallantoic membrane (CAM); test: Chick chorioallantoic membrane (CAM) assay, bFGF-stimulated angiogenesis; format: in vivo; conditions: 5 μg applied to CAM, observed at 72 hr; FIG. 5b
Procedure: Chick chorioallantoic membrane (CAM) assay, a simulated in vivo model, was carried out to examine the effect of Saxatilin on bFGF-stimulated angiogenesis. A part of the rind of fertilized 3-day-old egg was broken carefully, and sealed with transparent tape, and incubated for 10 days at 37° C. under an environment of 60% humidity. Then, bFGF was applied to the chick chorioallantoic membrane (CAM) of individual embryo (6 ng/embryo) to induce angiogenesis. After further incubation of 24 hr, PBS as a negative control and 5 μg recombinant Saxatilin obtained from Example 6 were applied to CAM, respectively. At 72 hr after treatment, the blood vessels of embryos were observed (see: FIGS. 5a and 5b).

[6] = tested on: Lewis lung carcinoma cells; test: Metastatic Lewis lung carcinoma growth in mice; format: in vivo, C57BL/6 mice
Procedure: 1×10^6 Lewis lung carcinoma cells (purchased from […], Rockville, Md., USA) were injected into the tails of 8-week-old male C57BL/6 mice (Charles river, Japan), intravenously. At 4 day after injection, recombinant Saxatilin obtained from Example 6 was periodically applied to mice by intravenous injection in an amount of 1.25 mg/kg/day (once per day). After 4-weeks of periodical treatment, tumor-bearing mice were sacrificed, and the number of tumor colony was counted by using stereomicroscope.
Furthermore, to observe the direct effect of Saxatilin on the metastatic lung carcinoma, histochemical study was carried out. Tumor-bearing lung tissue was fixed in paraffin in accordance with the conventionally known method followed by treatment of Bouin's solution for 4 hours. The tissue section of 4 μm thickness was infiltrated with trypsin at 37° C. for 10 min and washed with PBS. The tissue section was stained with hematoxylin and eosin, and then mounted (see: FIGS. 6a, 6b and 6c). FIG. 6a is a photograph showing lung tissue without Lewis lung carcinoma cell; FIG. 6b, lung tissue implanted with Lewis lung carcinoma cell and then treated with PBS; and, FIG. 6c, lung tissue implanted with Lewis lung carcinoma cell and then treated with Saxatilin. […] As illustrated as above, it was assumed that the suppression of metastatic tumor growth in Saxatilin-treated mice was due to blockade of Saxatilin against angiogenesis, which was essential for the secondary tumor growth.

BCE cell = test: bFGF-stimulated BCE cell proliferation; format: cell-based
[7] = 1.25 mg/kg/day i.v. from day 4, 4 weeks, C57BL/6 mice

Row | Molecule | HUVEC adhering to Vitronectin [1] | HUVEC adhering to Saxatilin [2] | IC50 [3] | LD50 (male C57BL/6 mouse) | IC50 ([4]; ADP-induced aggregation, human PRP, 25° C.) | inhibitory effect relative to GRGDSP peptide ([4]; ADP-induced platelet aggregation, more potent than GRGDSP) | Mortal group/Total group (ICR mice; 0.1 mg/kg i.v.) | Viability (ICR mice; 0.1 mg/kg i.v.) | Mortal group/Total group (ICR mice; 0.25 mg/kg i.v.) | Viability (ICR mice; 0.25 mg/kg i.v.) | Mortal group/Total group (ICR mice; 0.5 mg/kg i.v.) | Viability (ICR mice; 0.5 mg/kg i.v.) | effect on HUVEC growth (HUVEC) | effect on bFGF-stimulated angiogenesis (CAM) [5] | Average colony number [6, 7] | Inhibition rate (%) [6, 7] | effect on metastatic tumor growth ([6]; 1.25 mg/kg/day i.v., 4 weeks) | metastatic tumor growth in lung tissue, histochemical study ([6]; hematoxylin and eosin stained lung sections, FIG. 6c) | toxicity on tested mice ([6]; tumor-bearing mice, 1.25 mg/kg/day i.v.) | bFGF-stimulated BCE cell proliferation (BCE cell)
1 | N=C(N)NCCC[C@H](NC(=O)CN)C(=O)NCC(=O)N[C@@H](CC(=O)O)C(=O)N[C@@H](CO)C(=O)N1CCC[C@H]1C(=O)O [GRGDSP, reference compound] | prevented HUVEC from adhering | prevented HUVEC from adhering | 270000 nM |  |  |  |  |  |  |  |  |  |  |  |  |  |  |  |  | 
2 | Saxatilin (protein) EAGEECDCGAPANPCCDAATCKLRPGAQCAEGLCCDQCRFMKEGTICRMARGDDMDDYCNGISAGCPRNPFHA | prevented HUVEC from adhering | prevented HUVEC from adhering |  | about 1100 mg/kg | 179 nM | 1000 times | 16/20 | 20 | 11/20 | 55 | 3/20 | 85 | inhibited the HUVEC growth in a dose-dependent manner | had an inhibitory effect on angiogenesis | 0.7 ± 0.6 | 95% | potently inhibited the metastatic tumor growth | not observed | no toxicity | potently inhibited
3 | Recombinant Saxatilin: Saxatilin expressed in Pichia pastoris transformed with pPSAX, obtained in Example 6 (protein) EAGEECDCGAPANPCCDAATCKLRPGAQCAEGLCCDQCRFMKEGTICRMARGDDMDDYCNGISAGCPRNPFHA |  |  | 139 nM |  |  |  |  |  |  |  |  |  |  |  |  |  |  |  |  | 

Source: patent US7033788B2, “Protein derived from Agkistrodon saxatilis emelianov and process preparing the same” (priority 2002, dated 2006)
